Assay results: publication PMC4094278, “The Dictyostelium discoideum RACK1 orthologue has roles in growth and development” (Cell Communication and Signaling : CCS, 2014)

Target: the molecule itself
Experiment: cross-linking; 5-10 μg/100 μl recombinant protein in 1 x PBS, pH 7.4, room temperature, 0.001% glutaraldehyde, 5, 10 and 20 min, stopped with 0.1 M glycine; SDS-PAGE and western blot with anti-DdRACK1 antibodies; dimers and oligomers also seen without glutaraldehyde

B1: recombinant DdRACK1 full length protein cleaved from the GST part (natural protein, D. discoideum, UniProt P46800 1-329, looked up)
chain: MEQQKAPQVTYLEVGSLVGHNGFVTSIAVSPENPDTIISSSRDKTVMVWQLTPTDATSPGKAHRSLKGHSHFVQDVVISHDGQFALSGSWDNTLRLWDITKGVSTRLFKGHTQDVMSVAFSSDNRQIISGSRDATIKVWNTLGECKFTLEGPEAHQDWVSCIRFSPNTPTIVSGSWDNKVKIWDIKSFKCNHTLTDHTGYVNTVTISPDGSLCASGGKDTFACLWELSSGKPLYKLEARNTINALAFSPNKYWLSAATDDKIIIWDLLTKQVLAEIVPEVKEQAFDSKKKKESKPKAPACLSLAWSADGSVLYAGYNDGLIRVYKSSSQ
notes: D. discoideum RACK1 (GpbB), 329 amino acids; Cloned in pGEX-4T-1; cleaved with thrombin; also called GpbB; D. discoideum RACK1; source: E. coli XL1 Blue, purified (GST-Sepharose, thrombin cleavage, DE-52 anion exchange)
B1: binds.
